{"source": "paper PMC4859759", "origin": "cited, not measured here", "target": "VEGFR2 IgG domains 3-5 (Homo sapiens) (UniProt P35968)", "sequence (P35968 224-548)": "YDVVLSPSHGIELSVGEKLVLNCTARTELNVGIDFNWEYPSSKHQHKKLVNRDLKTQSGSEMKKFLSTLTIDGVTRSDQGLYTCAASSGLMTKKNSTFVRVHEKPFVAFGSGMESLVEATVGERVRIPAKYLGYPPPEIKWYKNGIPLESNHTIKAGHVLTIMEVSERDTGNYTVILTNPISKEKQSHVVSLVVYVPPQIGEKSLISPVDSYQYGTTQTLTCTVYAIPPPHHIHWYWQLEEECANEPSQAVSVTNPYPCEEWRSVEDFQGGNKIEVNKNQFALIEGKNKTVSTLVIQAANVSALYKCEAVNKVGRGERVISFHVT", "note": "pKd: −log10 of the molar value."}
{"substance": "endorepellin (perlecan) LG1/2 (from UniProt P98160)", "values": [{"measurement": "pKd", "result": 8.55}]}
